A protein production outcome set (Wang et al. 2014)

Assay: label from the status in PepcDB records

| Sequence | protein production |
| --- | --- |
| MRNIAVILAGGSGQRLGENIPKQFLKIAGKKVIEHTITVFQNHSLIDEIVVVVHPDYIRDVEDISLRNSFNKLKKILLGGKERYHSSLAAINAYDEEVNLLFHDSVRPLVNERIINDCIRALLTYNAVDVAIPTTDTIIQVDDNNEIVKIPSRILLRNGQTPQAFKRSVIKAAYEKALLDPLFKTTDDCGVVLKYLPDESIYVVNGEQFNMKLTYKEDIFLLDKLFQLRSIRNQPTLLEKSEMEELQGKVVVVFGGTYGIGQDICEICREYKTSLYVYSRSTGVDVSNSQSVRRVLSEIFDKEGRIDWIVNTAGILDKQPLANMSYEAVHQSIDVNYLGNIIVAKESFFYLKESKGSLLFFTSSSYTRGRALYSLYSSSKAAIVNFVQALSEEWFEYGIRVNCINPERTKTPMRIQNFGNEPEDTLLEPKVVAIVSVNTLLSEMTGEVVDVKRLEHHHHHH | failed |
| MYENKIVPLQMDRRKYLQSCVENMSITFVLFGTINIFFNLLINLINIGRINYEHFFKLFSITSGLWIVIILVQITSYLFSSGFFENLATIFLHDNERNKGDIWNIKSIGMFLINIITLGWLSIFSFYGIFSYIINSFDLINNFMLSTTILNFSVNLLFVLNQFLYFLFKVHEIRNIEFHNCLIHFLPGFSRMLESIVLTVKSKIMDNLSKNKNFVKAKNKKRFIDHNSYPYGDQ | failed |
| PLKEQKVINTANIKTNSKLDLAEYENGLINIATQQFDTESHVLQLNQYIPEKLIDELVAKVEAPVLTNIIEQDYFGKQNSNELSLSGVMIGLAMSSSVSNEEAMSKGTEVAKQLIEAINKNDKYNKSPITFAIFKQESTSSLKNGTYIASATVQKNDTNLGNWSTIDEKSYSYPSDEFTQAHGEDNTKINNFAKEIKGFSNGDFIPVNAKVSYKKDQMDTLNMNIVIKYNGKTELMALTQLAAQGMLDKLPKDAKVQLQIKSESKIEAVIIKEKNSDKPFVSFL | not failed |
| MRACAPIFRLLGGGVEHLGKSGRPGSGGRWWPLCGWLALAALVPAVQAEEGEPAPVEASAAARLVDVNEYFVRGNTVLDARAIEEAVYPFLGPQKALADIEGARDALQKVYQERGYQSVFVELPEQKVEDGIVYLQVSETKVGRVRVVGAKHYSPVEIRDQVPALKEGEVPDFATVQSQLAGLNRGAGRQVMPLVREGQRPGTMDVDLQVEDQNPWHASVGLNNDYSADTEKLRTVVNVGYDNLWQLGHSISLTYFTAPQDTDNAKVWSGSYTAPLSDRWALQFSGYQSDSNIATIGGSNVLGKGHSYGVSAIYTLPAAGNWANSLSVGVDFKDFEEEMRFGRSSDQIPLKYAPMTFGYNGYRYSEKAQLGLGLNLIVGTRRFFGYGSDAEEFHYKRDEASASFSVLKGDLNFTYTFANDWQSASKAAFQLASGPLVSNEQYSAGGATSVRGYLAAERTGDEGYLFSQELRTPSLAKFLGSYVQEWRFYAFAEGAHLSLHDPLPEQEDEYSLASVGLGTRASLSKWLSGSLDWGYPLKDGPNTQKYDPRLHFSVQATF | failed |
| MRLILSQCLANLSVRFLMNRNSYNKIAHLWNVARNGFFGREREYLDAILSVAPIGSTILDLGCGTGRPMAEYIVSRGRCVLGVDQSEEMLRLARQKLPHEQWVLSSIESYEPVEGYHGALLWDSLFHIRRTEHELIVSKVVRGLPSGGRLMLTVGGSAHPEFTDFMYGEEFYYDSNTPQETETFLQRLSCRMVIGEYMNLPDGGRDKGRYAIVAEKILEHHHHHH | failed |
| MLDHVIRGATVVDGTGAPAYTADVGIRDGRIAAVGTVTEPARAGEDAAGLVLAPGFVDPHTHYDAQLFWDPYATPSLNHGVTTVAGGNCGFTLAPLNPDRPQDADYTRRMMSKVEGMSLVALEEGAPWSWHTFGDYLDALEGRIAVNAGFMVGHCALRRYVMGPDAVGGRPTREQLERMLALFHEAMDAGAWGLSTTQSSTHSDGDGQPVASRHARPAELLALARAVGEHEGTQIEAIVAGCLDQFSDAEIDLFVEMSAAAGRPLNWNVLTIDAAVPERVPRQLTASERARKAGGRVVALTMPILTPMNMSLGTFCALNLIPGWGEVLGLPVPERIARLRDPDVRAELLRRADSKEAGVFRRLANFGRYVIGDTYSTANEGLTGRVVNDIAAERGQDPFHCLVEICAADELRTVLWPMPTDNDPDSWALRAETWRHKDVLLGGSDAGAHLDRMCGAPYTTRFLGDCLRGRKLVPLEQAVKMLTDDPARLFGLRDRGRIREGFHADLVLFDPARIDAGKATLVHDLPGDSPRLDSKAIGVTAVWVNGVEAIRDDVVTGAVPGKVLRSGRDTRTVSTR | failed |
| MGHEAKHPIIIGITGNIGSGKSTVAALLRSWGYPVLDLDALAARARENKEEELKRLFPEAVVGGRLDRRALARLVFSDPERLKALEAVVHPEVRRLLMEELSRLEAPLVFLEIPLLFEKGWEGRLHGTLLVAAPLEERVRRVMARSGLSREEVLARERAQMPEEEKRKRATWVLENTGSLEDLERALKAVLAELTGGAKEGRG | not failed |
| MKRKGVGFSLPVTVVMLVIGFIYFASVFTFIDRWFSLTSSPGIANAAAFTALALMCIYNYSIAVFRDPGRVPLNYMPDVEDPESPVHEIKRKGGDLRYCQKCSHFKPPRAHHCRVCKRCVLRMDHHCIWINNCVGHTNYKVFFVFVVYAVTACVYSLVLLVGSLTVEPQDEEEEMGSYLRTIYVISAFLLIPLSIALGVLLGWHIYLILQNKTTIEVYHEGVRAMWLAEKGGQVYKHPYDIGAYENLTLILGPNILSWLCPTSRHIGSGVRFRTAFDSIPDSSETKH | failed |
| MNEDLAVIVYTSGTTGNPKGVMITYENIKTNMEGVRAVDLVTETDVILAMLPYHHIMPLCFTLILPMYMGVPIVLLTEISSASLLKALQENRVTVILGVPRVWEMLDKAIMTKINQSSLAKFMFKMASKINSMSIRKMLFSKVHKQFGGNIRLMVSGGAKIDKNILEDFRTMGFCAIQGYGMTETAPIITFNVPGRERSDSAGLEHHHHHH | failed |
| MRDLDREETYLVDRTGLALELRDLVGTGPVPGEAYPGPHAALGYGEGQFAALLSGLPDWGEEGTLFLLEGGYDLGEAAGMALLAETGRARVVRVGFRPGVEVHIPPSPLAPYRYLRFLLLATGREEVLRSVDEALLEERRRLGPEVPVEENPAKFLAYTLLERLPLFYSPLFRPLEGAVQTLFARVAKSLSLTPPPSALEFFLVGLEARHEQGDPLAAVLLGPGEEAALAKEILESRVDALAEVPATGANRLAQVMALWYRMAWTAYYLALLYGVDPGDHGLLERLREVT | not failed |
| MATDAPPPSKEEPPSQEEHRLPSAEEFSEVQQSAEFAELRRSFRSFAFPLTVAFVAWYLLYVLLSNYAGGFMGTKLFGNINVAFVFGIAQFVTTFLIAWWYSRHAAAKLDPKAEAIKTRMEGGA | failed |
| MGSSHHHHHHSSGRENLYFQGVKSEDQLVHICSREEWRTAEREGSRVPATFRADGFVHLSTPAQVHLPANRLFAGRTDLVLLRLDPTALGAPVKWEPGVPADPASMLFPHLYGPLPVAAVTGVEEYRPDADGTFPARR | not failed |
| MSVGVEVLTISFVVIVIAAVIGFLARSKNVSLEQWAVGGRNIGALLIWFLLAGEIYTAFTFLGVPGYAYAFGAPAYYALSYGVLAYLTSYFILPKIWRISKKKNIMTQPDFFKERYQSTLLATIVAVVGVVFMVPYLELQVSAITDILEVMGYNVIMPAYVMIITFVLTAGYVIMNGLRSATFTAFFKDGLALIVIFSALIVIPAVQFGDLNNMMHRMVTNYSEYLYFPGHSELGLSWFVSVVLMSALGFFMWPHSFQSYISAKNDNVLKKNAVFLPVYNVLLVITVFMGFAALLYNPHLSNADDAFLIVARASFPSWWNGVVAGAITLGSMVPASVLLIASSTIISKNLYKDLINKKASDSSVKFIAQVFVAIITGVALLFAIEFPALFVNLLLLGYSGITLFFPGIVMGITWRKVTAVGVISGIITGLIVNAVFFLPLSSYSHIIYPGLVGLFADTVVTILVSLVTKAPSGEVIEEFVTA | failed |
| MLEQIFILLIALVVLVWSADKFVFGASSLARNLGISPMIIGLTIVAMGSSAPEMMVAATASMQGNPDTAIGNAIGSNITNIALVLGITALLQPLTVSSQTIKREIPLILAVTALGYWLLFDNHFSFIEGIILISGFAIYIITLLVITLKKTRGKPSDDPLIIEAEQDVAAAVSMKLSLIWLGVGIILLPLSASFLVDSSVYIAKAYGISDLVIGLTIIAIGTSLPELAASIMSIIKKEDDLALGNIIGSNIFNILAVLPIAGLIAPGNIDALAASRDAPYMLGITLLLFILCFSRRLGAFRITRAKGALLLLSFIAYQVLLFSQLS | failed |
| MSEHPKKVVLLDLDGTLTKSDPGIIGCVVKAFEEMGYPVPDDAELHRFIGPAISESMQRNGIPDDKLDEGVRIYRKYYADEAVFDDPNNPGQKVPGRLNNTIYQGIPEQLAKLRADGYYLAIASCKPQYQCIPICEHFHLDTMVDGIYGASEDNSRLDKDQVIRWAFQHIDFDENAGDKALMVGDRWTDADGAKACGLDCLGCGWGYAEPGELKAHGAYRILDSVDELAQAVEEYFA | not failed |
| MEPQKESNQNYLPYPPHPQQDHDEIDLRELFKALWEGKWIVIATTFVIAVSAVLYALSLPNIYKADALLAPAESSNGGGLSKMAGQLGGLAALAGVNLGASESSQTDLAVQVMRSRQFINTFINKHDLLVPLMAGKDWDLSNNKLILDEELYNPNTGEWLRDAKGLRGATPTAQEAFEVFSKEVLSINQDKESGLYTVSMKNYSPYIAQQWVNWLIEDINKAMRERTIAETSQNLAYLNTQLQKTAVTDMQSTFYKLIEEQTKSLMLAEVQEEFVFKVVDPAVVPELKDSPKRVLICVLGILLGVMLGVAIVLIRIVFRKEDTENLEPRT | failed |
| MGHHHHHHSHMAGTVVLDDVELREAQRDYLDFLDDEEDQGIYQSKVRELISDNQYRLIVNVNDLRRKNEKRANRLLNNAFEELVAFQRALKDFVASIDATYAKQYEEFYVGLEGSFGSKHVSPRTLTSCFLSCVVCVEGIVTKCSLVRPKVVRSVHYCPATKKTIERRYSDLTTLVAFPSSSVYPTKDEENNPLETEYGLSVYKDHQTITIQEMPEKAPAGQLPRSVDVILDDDLVDKAKPGDRVQVVGTYRCLPGKKGGYTSGTFRTVLIACNVKQMS | not failed |
| MALVSADSRIAELLTELHQLIKQTQEERSRSEHNLVNIQKTHERMQTENKISPYYRTKLRGLYTTAKADAEAECNILRKALDKIAEIKSLLEERRIAAKIAGLYNDSEPPRKTMRRGVLMTLLQQSAMTLPLWIGKPGDKPPPLCGAIPASGDYVARPGDKVAARVKAVDGDEQWILAEVVSYSHATNKYEVDDIDEEGKERHTLSRRRVIPLPQWKANPETDPEALFQKEQLVLALYPQTTCFYRALIHAPPQRPQDDYSVLFEDTSYADGYSPPLNVAQRYVVACKEPKKK | failed |
| MSKFRSCSWKCSDMGKSLCGAGGLVWTPPHPLLRKALSHRGRGVKDTNFVGMTTRAVRKGTLRARALRRTQTVEEKTLWLALRNRFLNVKFRRQWPMGGYVVDFVCFEAKLIVELDGSQHAEEAARDYDAVRTEFLEAGGFTVLRFWNNEVRKNLEGVLLEIQKRLP | failed |
| MGKNIPSSLDLYPIIHNYLQEDDEILDIGCGSGKISLELASLGYSVTGIDINSEAIRLAETAARSPGLNQKTGGKAEFKVENASSLSFHDSSFDFAVMQAFLTSVPDPKERSRIIKEVFRVLKPGAYLYLVEFGQNWHLKLYRKRYLHDFPITKEEGSFLARDPETGETEFIAHHFTEKELVFLLTDCRFEIDYFRVKELETRTGNKILGFVIIAQKLLEHHHHHH | not failed |
| MDVSGQLNTETVGSSLRKIRSFSHYEKHDEVFHSDQSHIVVVHNGQLRVQTGDCTIDVVAGSGVFLSQGDYLLEYSPQGGNYHSSIIEFDNELVSQLLQKHSDLLMTLPKVDKLNSGLFSFGLNILIEQVLSGMKTLEEQSYPDAIMRLKYEEMLILLLHSQGGEVLYALLSQQTNRTSDRLRRFMEQHYLKEWKLTDYAQEFGASLTTFKELFNEHYGISPRAWISERRLLHAHKLLLTSKMSIVDVAMEAGFSSQSYFTQSYRRRFGTTPSKVRSGDEQVAIAN | failed |
